PMC2877719

Legend:
[1] = molecular target: full-length hEAG1 with mutated BD-C2 (F714S, F717S) labeled with Cerulean (human) (UniProt O95259); assay: FRET or BRET; acceptor photobleaching FRET in co-transfected HEK-293 cells; Cerulean on hEAG1 (donor), YFP on CaM (acceptor); 1 uM ionomycin in Ringer solution with 1.8 mM CaCl2 (+Ca2+), 10 min at 37 C, then fixed with 4% formaldehyde
[2] = molecular target: C-terminus of hEAG1 (M478-S962) labeled with Cerulean (human) (UniProt O95259); assay: as above
[3] = molecular target: full-length hEAG1 mutated in BD-N (F151S, A152S) labeled with Cerulean (human) (UniProt O95259); assay: as above
[4] = molecular target: full-length hEAG1 labeled with Cerulean (human) (UniProt O95259); assay: as above
[5] = molecular target: full-length hEAG1 with mutated BD-C2 (F714S, F717S) labeled with Cerulean (human) (UniProt O95259); assay: FRET or BRET; acceptor photobleaching FRET in co-transfected HEK-293 cells; Cerulean on hEAG1 (donor), YFP on CaM (acceptor); 1 uM ionomycin in Ca2+- and Mg2+-free Ringer solution with 1 mM EGTA (-Ca2+), 10 min at 37 C, then fixed with 4% formaldehyde
[6] = molecular target: full-length hEAG1 labeled with Cerulean (human) (UniProt O95259); assay: as above

full-length hEAG1 with mutated BD-C2 (F714S, F717S) labeled with Cerulean (human), sequence (O95259 other isoform, or with tags, fused parts or gaps F714S | F717S | F714S F717S): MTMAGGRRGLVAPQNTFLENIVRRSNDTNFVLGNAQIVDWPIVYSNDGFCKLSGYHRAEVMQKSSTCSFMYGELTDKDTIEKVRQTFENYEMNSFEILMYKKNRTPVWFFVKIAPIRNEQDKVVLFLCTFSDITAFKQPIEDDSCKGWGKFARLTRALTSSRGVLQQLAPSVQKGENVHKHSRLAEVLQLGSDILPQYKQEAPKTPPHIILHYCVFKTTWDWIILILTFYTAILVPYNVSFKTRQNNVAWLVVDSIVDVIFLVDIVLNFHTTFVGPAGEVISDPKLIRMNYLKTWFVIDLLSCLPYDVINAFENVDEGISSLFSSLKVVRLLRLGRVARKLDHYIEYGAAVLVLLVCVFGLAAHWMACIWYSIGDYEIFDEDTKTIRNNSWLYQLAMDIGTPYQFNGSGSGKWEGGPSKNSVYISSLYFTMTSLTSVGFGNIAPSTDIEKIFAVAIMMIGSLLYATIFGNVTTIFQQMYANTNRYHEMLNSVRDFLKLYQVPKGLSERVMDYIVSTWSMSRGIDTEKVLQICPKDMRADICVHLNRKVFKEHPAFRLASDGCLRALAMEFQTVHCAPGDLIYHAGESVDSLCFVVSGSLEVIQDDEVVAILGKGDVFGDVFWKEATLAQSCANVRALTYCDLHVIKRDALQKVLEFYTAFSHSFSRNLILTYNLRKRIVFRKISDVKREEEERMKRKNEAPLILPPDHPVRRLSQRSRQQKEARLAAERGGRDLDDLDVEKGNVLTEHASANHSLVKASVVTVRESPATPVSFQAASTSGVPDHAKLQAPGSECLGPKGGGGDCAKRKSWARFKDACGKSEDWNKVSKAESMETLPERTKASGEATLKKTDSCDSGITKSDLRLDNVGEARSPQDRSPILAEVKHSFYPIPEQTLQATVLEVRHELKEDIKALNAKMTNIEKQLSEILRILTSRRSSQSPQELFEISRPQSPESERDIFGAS
full-length hEAG1 labeled with Cerulean (human), sequence (O95259 other isoform, or with tags, fused parts or gaps): as the sequence (O95259 other isoform, or with tags, fused parts or gaps F714S | F717S | F714S F717S) above, with S714F, S717F counted along it
full-length hEAG1 mutated in BD-N (F151S, A152S) labeled with Cerulean (human), sequence (O95259 other isoform, or with tags, fused parts or gaps F151S | A152S | F151S A152S): as the sequence (O95259 other isoform, or with tags, fused parts or gaps F714S | F717S | F714S F717S) above, with F151S, A152S, S714F, S717F counted along it
C-terminus of hEAG1 (M478-S962) labeled with Cerulean (human), sequence (O95259 505-989): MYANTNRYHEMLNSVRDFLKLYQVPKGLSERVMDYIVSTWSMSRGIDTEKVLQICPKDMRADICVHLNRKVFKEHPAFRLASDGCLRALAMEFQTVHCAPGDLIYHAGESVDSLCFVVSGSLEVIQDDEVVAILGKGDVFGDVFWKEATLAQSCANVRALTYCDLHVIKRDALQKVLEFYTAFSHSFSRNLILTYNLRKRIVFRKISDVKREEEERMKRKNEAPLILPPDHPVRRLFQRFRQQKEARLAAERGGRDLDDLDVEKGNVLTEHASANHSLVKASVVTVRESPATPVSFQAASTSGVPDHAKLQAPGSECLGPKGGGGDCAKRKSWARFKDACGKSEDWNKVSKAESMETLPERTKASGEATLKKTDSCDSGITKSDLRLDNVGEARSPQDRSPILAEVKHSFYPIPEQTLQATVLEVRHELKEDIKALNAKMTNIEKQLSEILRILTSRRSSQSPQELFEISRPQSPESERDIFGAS

- FRET efficiency [1]: 8.7%
- mean FRET efficiency [2]: 9.5%
- FRET efficiency [3]: 9.8%
- FRET efficiency [4]: 17%
- FRET efficiency [5]: 11.5%
- FRET efficiency [6]: 10.1%
Substance: N-terminally YFP-labeled calmodulin (rat calmodulin II) (from UniProt P0DP30 1-149) (natural protein)
